Measured values published in patent US20030211995A1, “Methods and formulations for eradicating or alleviating staphylococcal nasal colonization using lysostaphin” (priority 2001, published 2003).

Tested on: S. aureus
Assay: Proteinase K neutralization of lysostaphin activity in vitro
Assay type: cell-based
Conditions: 10^5 S. aureus in PBS; lysostaphin 10 mcg and/or 10 mg/ml Proteinase K; 20 minutes at room temperature
Protocol: Lysostaphin (10 mcg) was added to some samples of 10^5 S. aureus in PBS in the presence or absence of 10 mg/ml Proteinase K. The samples were incubated for 20 minutes at room temperatures and then 100 microliter aliquots were plated on blood agar.

B1: Proteinase K: protease used at 10 mg/ml to neutralize lysostaphin (protein, UniProt P06873 106-384, looked up)
Proteinase K: AAQTNAPWGLARISSTSPGTSTYYYDESAGQGSCVYVIDTGIEASHPEFEGRAQMVKTYYYSSRDGNGHGTHCAGTVGSRTYGVAKKTQLFGVKVLDDNGSGQYSTIIAGMDFVASDKNNRNCPKGVVASLSLGGGYSSSVNSAAARLQSSGVMVAVAAGNNNADARNYSPASEPSVCTVGASDRYDRRSSFSNYGSVLDIFGPGTSILSTWIGGSTRSISGTSMATPHVAGLAAYLMTLGKTTAASACRYIADTANKGDLSNIPFGTVNLLAYNNYQA
B1 was tested, and the “CFUs Recovered” value was 10^5 CFUs.
